Measured values from patent publication US6998239B1, “Method for identifying a modulator of the binding of CCX CKR polypeptide to a chemokine” (ChemoCentryx, Inc., priority 1999, dated 2006).
Entries after “also recorded” stand apart in the source; their conditions may differ. Values belong to the compound of their own block, whether it stands above or below them.

Columns and labels:
[1] = target: T1, CCX CKR (Homo sapiens, UniProt Q9NPB9); test: Ligand induced internalization of CCX CKR in 293 F-CCR10 cells (FACS, anti-Flag); type: cell-based; details: 100 nM chemokine, 37° C., 15 or 45 minutes
T1 construct: Full length CCX CKR expression constructs were made in pIRESpuro expression vector; expressed in transfected cells
T1 sequence (Q9NPB9 1-350): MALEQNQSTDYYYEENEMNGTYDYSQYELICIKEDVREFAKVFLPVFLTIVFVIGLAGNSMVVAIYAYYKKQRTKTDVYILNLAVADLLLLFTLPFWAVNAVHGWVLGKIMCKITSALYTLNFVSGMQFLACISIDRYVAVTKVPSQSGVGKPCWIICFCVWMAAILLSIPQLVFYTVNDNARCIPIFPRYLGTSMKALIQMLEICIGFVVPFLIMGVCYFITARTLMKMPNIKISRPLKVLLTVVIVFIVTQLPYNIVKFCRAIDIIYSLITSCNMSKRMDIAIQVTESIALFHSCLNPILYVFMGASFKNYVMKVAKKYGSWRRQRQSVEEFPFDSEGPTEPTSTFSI
Protocol: 293 cells transfected with the Flag-CCX CKR fusion plasmid (i.e., “293 F-CCR10 cells;” see Example 3) were incubated at 37° C. with varying concentrations of chemokines (ELC, SLC, TECK, murine CTACK and MCP4) for 15 or 45 minutes. Following incubation, the cells were washed and fixed with 3% paraformaldehyde for 15 minutes on ice. The cells were stained with anti-Flag M1 antibody, followed by a PE-conjugated anti-mouse secondary antibody. FACS analysis were then carried out to determine surface expression of the receptor.
Results: A reduction in antibody binding in the presence of ligand is an indication of ligand-induced internalization of the receptor.

[2] = target: T1, CCX CKR; test: Small molecule screen: inhibition of 125I-ELC binding to HEK293 cells expressing CCX CKR; details: for Effect on binding between ELC and CCX CKR: 125I-ELC ~25-100 pM, compounds 1-5 μg/mL, ~3 hours at 4° C., HEK293 Flag-CCX CKR cells; for Type of modulator of CCX CKR function: Table 1, class given beside the label
Protocol: Source plates of chemical libraries were obtained from commercial vendors and contained individual compounds at 5 mg/mL in DMSO, or in some instances, at 1 mg/mL. From these, multiple compound plates containing 10 compounds in each well were made, and these were diluted in 20% DMSO to a concentration of 50 μg/mL (10 μg/mL for those beginning at 1 mg/mL). An aliquot of 20 μL of each mixture was put into the test plates, which were stored frozen until use.
HEK293 cells stably expressing the M1 flag epitope-tagged CCX CKR (described in Example 3, supra) were cultured in DMEM-10% FBS, and harvested when the concentration was between 0.5-1.0×10^6 cells/mL. The cells were centrifuged and resuspended in assay buffer (20 mM HEPES, 80 mM NaCl, 1 mM CaCl2, 5 mM MgCl2, and with 0.2% bovine serum albumin, pH 7.4) to a concentration of 5.6×10^6 cells/mL.
Using a Multi-Probe automated system, 0.09 mL of cells was added to each well of the assay test plates containing the compounds, followed by 0.09 mL of ^125I-MIPβ3/ELC (from Amersham Pharmacia Biotech) diluted in assay buffer (final concentration ˜25-100 pM, with ˜50,000 cpm per well). The final concentration of the compounds was 1-5 μg/mL each. The plates were sealed and incubated for approximately 3 hours at 4° C. on a shaker platform. The assay plates were harvested using Packard GP/B filter plates, pre-soaked in PEI solution, on the vacuum harvest apparatus. Scintillation fluid (50 μL) was added to each of the wells, the plates were sealed and counted in a Top Count scintillation counter. Control wells contained either diluent only (for total counts) or excess ELC (1 μg/mL, for non-specific binding) and were used to calculate the percent of total inhibition of ELC binding for each set of compounds.

[3] = target: T1, CCX CKR; test: Radioligand binding competition with Scatchard transformation (binding constants); details: for Affinity class of CCX CKR ligands (summary of Examples 4-6): summary statement
Source text: In one embodiment, binding is detected as described by Dairaghi et al., 1997, J. Biol. Chem. 272:28206-209 (incorporated by reference in its entirety for all purposes) substituting CCX CKR transfectants for the CCR3 transfectants). In one embodiment, binding is detected using the filter based technique described by Dairaghi et al., 1999, J. Biol. Chem. 274:2156 (incorporated by reference in its entirety for all purposes), e.g., as shown in FIG. 4. Briefly, this technology employs expanded, efficiency-maximized radioligand binding utilizing filtration protocols. In these assays, 1×10^5 CCXCKR-293 HEK cells are incubated with […] (MlP3beta) (final concentration of ˜0.05 nM) in the presence of unlabeled chemokine for 3 h at 4° C. in 25 mM HEPES, 140 mM NaCl, 1 mM CaCl2, 5 mM MgCl2, and 0.2% bovine serum albumin, adjusted to pH 7.1. Reactions were aspirated onto PEI-treated GF/B glass filters using a cell harvester (Packard). Filters are washed twice (25 mM HEPES, 500 mM NaCl, 1 mM CaCl25 mM MgCl2, adjusted to pH 7.1) and scintillant (e.g., MicroScint 20; 50 μl) is added to dried filters and counted (e.g., using a Packard Topcount scintillation counter). The competition dose-response curves is analyzed by standard methods to determine IC50 values (e.g., using GraphPad Prism software (San Diego, Calif.)). Additionally, a Scatchard transformation can be used to estimate the receptor sites per cell (e.g., using WaveMetrics Igor software (Lake Oswego, Oreg.)).
Binding analysis was carried out using efficiency-maximized radioligand binding utilizing filtration protocols designated “Displace Max” (Dairaghi et al., 1999, J Biol. Chem. 274:21569). […]
The binding interactions identified in the primary screen were examined quantitatively by extensive radioligand binding competition to CCX CKR stable transfectants and Scatchard transformation of the displacement data (FIG. 4B). […]

[4] = target: T1, CCX CKR; test: Ligand binding fingerprint: displacement of 125I-ELC from CCX CKR stable transfectants by cold chemokines; details: cold competitor 200 nM; human and murine ELC, SLC, TECK; comparable with 125I-TECK
Source text: In one embodiment, binding is detected as described by Dairaghi et al., 1997, J. Biol. Chem. 272:28206-209 (incorporated by reference in its entirety for all purposes) substituting CCX CKR transfectants for the CCR3 transfectants). In one embodiment, binding is detected using the filter based technique described by Dairaghi et al., 1999, J. Biol. Chem. 274:2156 (incorporated by reference in its entirety for all purposes), e.g., as shown in FIG. 4. Briefly, this technology employs expanded, efficiency-maximized radioligand binding utilizing filtration protocols. […] Filters are washed twice (25 mM HEPES, 500 mM NaCl, 1 mM CaCl25 mM MgCl2, adjusted to pH 7.1) and scintillant (e.g., MicroScint 20; 50 μl) is added to dried filters and counted (e.g., using a Packard Topcount scintillation counter). The competition dose-response curves is analyzed by standard methods to determine IC50 values (e.g., using GraphPad Prism software (San Diego, Calif.)). […]
In order to rapidly and thoroughly define a given chemokine receptor's ligand binding fingerprint, we have established an approach to comprehensively profile chemokine receptors using a large array of purified chemokines and chemokine variants. […] Employing radioligand binding of ^125I-labeled-ELC or ^125I-TECK to CCX CKR stable transfectants, chemokine specificity for the new receptor was determined. […]

[5] = target: T1, CCX CKR; test: Homologous competition binding of radiolabeled chemokine on HEK293-CCX CKR cells
Source text: Furthermore ELC-SK mediated adhesion was abolished in the presence of soluble native ELC as a competitor (FIG. 3A, top row). […] Moreover, radiolabeled ELC was used in a traditional homologous competition assay in the presence of increasing concentrations of unlabeled ELC. […] Taken together, the stalkokine-based adhesion and radiolabeled ligand binding/homologous competition assays indicate that CCX CKR is a new chemokine receptor that bound a novel compliment of chemokines.

[6] = target: T1, CCX CKR; test: Preliminary chemotaxis analysis of CCX CKR transfectants; type: cell-based; details: preliminary chemotaxis analyses, not shown
[7] = target: T1, CCX CKR; test: Adhesion of HEK293-CCX CKR cells to immobilized ELC-stalkokine and competition by soluble chemokines; type: cell-based; details: 5-10 ug/ml soluble recombinant chemokine as competitor
Source text: “Stalkokine” technology was used to :identify the chemokines bound by the CCX CKR. Briefly, immobilized native chemokines alone are incapable of capturing cells bearing cognate receptors (Imai et al., 1997, Cell 91:521). We have developed non-native chemokine structures, stalkokines, comprising chemokine moieties engineered as N-terminal attachments to extended modified mucins (Bazan et al., 1997, Nature 385:640). In one embodiment, stalkokines, harvested in the supernatants of HEK293 cells after transient transfection, are anchored to solid substrates via antibodies against carrier domains (e.g. poly-His epitopes) engineered to the carboxyl terminus, leaving the chemokine domain free to interact with candidate orphan receptors.
To determine ligand binding to CCX CKR, HEK293-CCX CKR cells were used to interrogate chemokine ‘stalkokines’ (SK), i.e., molecules in which discrete chemokine domains were engineered to be tethered to the end of an extended stalk structure. […] In all cases, nonadherent cells were removed by washing in PBS; remaining adherent cells were fixed with 1% glutaraldehyde, photoimaged and counted. […]

- Internalization of the receptor [1]: did not cause internalization
Compound: MCP4: chemokine used as non-binding control in internalization assay

- Effect on binding between ELC and CCX CKR [2]: enhance binding
- Type of modulator of CCX CKR function [2]: Com- pound III (agonist)
Compound: CCC(c1nc2ccccc2c(=O)n1C)N(Cc1ccco1)C(=O)Nc1cccc(C(F)(F)F)c1 (centres unmarked) [Compound III]

- Binding of radiolabeled ELC, homologous competition with unlabeled ELC [5]: significant binding
- Affinity class of CCX CKR ligands (summary of Examples 4-6) [3]: high affinity
- Binding to CCX CKR by displacement of 125I-labeled ELC [4]: bound well
- Migration of CCX CKR transfectants in response to chemokine [6]: moderate migration
Compound: ELC: EBII ligand chemokine, recombinant chemokine from R&D Systems
- Internalization of the receptor [1]: Internalization of the receptor was observed
- Effect of soluble chemokine on ELC-SK mediated adhesion of HEK293-CCX CKR cells [7]: ablation of adhesion; also recorded: abolished

The remaining lines, values behind:

Compound: CC1CCCCN1CCCN(Cc1ccc(OCc2ccccc2)cc1)C(=O)Nc1ccc(Cl)c(Cl)c1 (centres unmarked) [Compound I]
- Effect on binding between ELC and CCX CKR [2]: inhibit binding
- Type of modulator of CCX CKR function [2]: Com- pound I (antago- nist)

Compound: BLC: CXC chemokine BLC
- Affinity for CCX CKR in multipoint competition, in words ([3]; competition against 125I-ELC): of lesser affinity, also bound well
- Affinity class of CCX CKR ligands (summary of Examples 4-6) [3]: lower affinity
- Binding to CCX CKR by displacement of 125I-labeled ELC [4]: lower affinity

Compound: MCP-3: soluble chemokine, representative of non-competing chemokines
- Effect of soluble chemokine on ELC-SK mediated adhesion of HEK293-CCX CKR cells [7]: no diminution in adhesion and not

Compound: CC1CCCCN1CCCN(Cc1ccc(OCc2ccccc2)cc1)C(=O)NC12CCCC3CCC1CC2C3 (centres unmarked) [Compound II]
- Effect on binding between ELC and CCX CKR [2]: inhibit binding
- Type of modulator of CCX CKR function [2]: Com- pound II (antago- nist)
